Assay results reported in patent publication US20160317649A1, “EPITOPES OF HERPES SIMPLEX VIRUS” (priority 2007, published 2016).
Where two headings read alike, the source gives them in different places.

What was measured:
Settings in all cases: modification not given
HLA DRB1*0701 (human) [1] = molecular target: HLA DRB1*0701 (human)
HLA DRB1*0101 (human) [2] = molecular target: HLA DRB1*0101 (human)
HLA DRB1*1302 (human) = molecular target: HLA DRB1*1302 (human)
HLA DRB1*0101 (human) [3] = molecular target: HLA DRB1*0101 (human); remark: listed apart in the source
HLA DRB1*0101 (human) [4] = molecular target: HLA DRB1*0101 (human); remark: listed apart in the source
HLA DRB1*0701 (human) [5] = molecular target: HLA DRB1*0701 (human); remark: listed apart in the source

## AYQQGVTVDSIG [24.2]
HLA DRB1*0701 (human) [1]
  IC50: 2720 nM
HLA DRB1*0101 (human) [2]
  IC50: 471 nM

## APAAPANPGLII [34.2]
HLA DRB1*1302 (human)
  IC50: 642 nM
HLA DRB1*0101 (human) [3]
  IC50: 1270 nM

## HAPAAPANPGLI [34.1]
HLA DRB1*0101 (human) [4]
  IC50: 3550 nM

## YQQGVTVDSIGM [24.3]
HLA DRB1*0701 (human) [5]
  IC50: 389 nM
